# Experimental data reported in IntAct's records for PubMed 35266954.
# B1: Probable E3 ubiquitin-protein ligase MID2 (Homo sapiens), Q9UJV3 (parent)
# chain: MGESPASVVLNASGGLFSLKMETLESELTCPICLELFEDPLLLPCAHSLCFSCAHRILVSSCSSGESIEPITAFQCPTCRYVISLNHRGLDGLKRNVTLQNIIDRFQKASVSGPNSPSESRRERTYRPTTAMSSERIACQFCEQDPPRDAVKTCITCEVSYCDRCLRATHPNKKPFTSHRLVEPVPDTHLRGITCLDHENEKVNMYCVSDDQLICALCKLVGRHRDHQVASLNDRFEKLKQTLEMNLTNLVKRNSELENQMAKLIQICQQVEVNTAMHEAKLMEECDELVEIIQQRKQMIAVKIKETKVMKLRKLAQQVANCRQCLERSTVLINQAEHILKENDQARFLQSAKNIAERVAMATASSQVLIPDINFNDAFENFALDFSREKKLLEGLDYLTAPNPPSIREELCTASHDTITVHWISDDEFSISSYELQYTIFTGQANFISKSWCSWGLWPEIRKCKEAVSCSRLAGAPRGLYNSVDSWMIVPNIKQNHYTVHGLQSGTRYIFIVKAINQAGSRNSEPTRLKTNSQPFKLDPKMTHKKLKISNDGLQMEKDESSLKKSHTPERFSGTGCYGAAGNIFIDSGCHYWEVVMGSSTWYAIGIAYKSAPKNEWIGKNASSWVFSRCNSNFVVRHNNKEMLVDVPPHLKRLGVLLDYDNNMLSFYDPANSLHLHTFDVTFILPVCPTFTIWNKSLMILSGLPAPDFIDYPERQECNCRPQESPYVSGMKTCH
# Variants of: B1
# Details: with lrrk2_human LRRK2, Q5S007
# Sequence of lrrk2_human LRRK2, Q5S007 (Q5S007 whole entry): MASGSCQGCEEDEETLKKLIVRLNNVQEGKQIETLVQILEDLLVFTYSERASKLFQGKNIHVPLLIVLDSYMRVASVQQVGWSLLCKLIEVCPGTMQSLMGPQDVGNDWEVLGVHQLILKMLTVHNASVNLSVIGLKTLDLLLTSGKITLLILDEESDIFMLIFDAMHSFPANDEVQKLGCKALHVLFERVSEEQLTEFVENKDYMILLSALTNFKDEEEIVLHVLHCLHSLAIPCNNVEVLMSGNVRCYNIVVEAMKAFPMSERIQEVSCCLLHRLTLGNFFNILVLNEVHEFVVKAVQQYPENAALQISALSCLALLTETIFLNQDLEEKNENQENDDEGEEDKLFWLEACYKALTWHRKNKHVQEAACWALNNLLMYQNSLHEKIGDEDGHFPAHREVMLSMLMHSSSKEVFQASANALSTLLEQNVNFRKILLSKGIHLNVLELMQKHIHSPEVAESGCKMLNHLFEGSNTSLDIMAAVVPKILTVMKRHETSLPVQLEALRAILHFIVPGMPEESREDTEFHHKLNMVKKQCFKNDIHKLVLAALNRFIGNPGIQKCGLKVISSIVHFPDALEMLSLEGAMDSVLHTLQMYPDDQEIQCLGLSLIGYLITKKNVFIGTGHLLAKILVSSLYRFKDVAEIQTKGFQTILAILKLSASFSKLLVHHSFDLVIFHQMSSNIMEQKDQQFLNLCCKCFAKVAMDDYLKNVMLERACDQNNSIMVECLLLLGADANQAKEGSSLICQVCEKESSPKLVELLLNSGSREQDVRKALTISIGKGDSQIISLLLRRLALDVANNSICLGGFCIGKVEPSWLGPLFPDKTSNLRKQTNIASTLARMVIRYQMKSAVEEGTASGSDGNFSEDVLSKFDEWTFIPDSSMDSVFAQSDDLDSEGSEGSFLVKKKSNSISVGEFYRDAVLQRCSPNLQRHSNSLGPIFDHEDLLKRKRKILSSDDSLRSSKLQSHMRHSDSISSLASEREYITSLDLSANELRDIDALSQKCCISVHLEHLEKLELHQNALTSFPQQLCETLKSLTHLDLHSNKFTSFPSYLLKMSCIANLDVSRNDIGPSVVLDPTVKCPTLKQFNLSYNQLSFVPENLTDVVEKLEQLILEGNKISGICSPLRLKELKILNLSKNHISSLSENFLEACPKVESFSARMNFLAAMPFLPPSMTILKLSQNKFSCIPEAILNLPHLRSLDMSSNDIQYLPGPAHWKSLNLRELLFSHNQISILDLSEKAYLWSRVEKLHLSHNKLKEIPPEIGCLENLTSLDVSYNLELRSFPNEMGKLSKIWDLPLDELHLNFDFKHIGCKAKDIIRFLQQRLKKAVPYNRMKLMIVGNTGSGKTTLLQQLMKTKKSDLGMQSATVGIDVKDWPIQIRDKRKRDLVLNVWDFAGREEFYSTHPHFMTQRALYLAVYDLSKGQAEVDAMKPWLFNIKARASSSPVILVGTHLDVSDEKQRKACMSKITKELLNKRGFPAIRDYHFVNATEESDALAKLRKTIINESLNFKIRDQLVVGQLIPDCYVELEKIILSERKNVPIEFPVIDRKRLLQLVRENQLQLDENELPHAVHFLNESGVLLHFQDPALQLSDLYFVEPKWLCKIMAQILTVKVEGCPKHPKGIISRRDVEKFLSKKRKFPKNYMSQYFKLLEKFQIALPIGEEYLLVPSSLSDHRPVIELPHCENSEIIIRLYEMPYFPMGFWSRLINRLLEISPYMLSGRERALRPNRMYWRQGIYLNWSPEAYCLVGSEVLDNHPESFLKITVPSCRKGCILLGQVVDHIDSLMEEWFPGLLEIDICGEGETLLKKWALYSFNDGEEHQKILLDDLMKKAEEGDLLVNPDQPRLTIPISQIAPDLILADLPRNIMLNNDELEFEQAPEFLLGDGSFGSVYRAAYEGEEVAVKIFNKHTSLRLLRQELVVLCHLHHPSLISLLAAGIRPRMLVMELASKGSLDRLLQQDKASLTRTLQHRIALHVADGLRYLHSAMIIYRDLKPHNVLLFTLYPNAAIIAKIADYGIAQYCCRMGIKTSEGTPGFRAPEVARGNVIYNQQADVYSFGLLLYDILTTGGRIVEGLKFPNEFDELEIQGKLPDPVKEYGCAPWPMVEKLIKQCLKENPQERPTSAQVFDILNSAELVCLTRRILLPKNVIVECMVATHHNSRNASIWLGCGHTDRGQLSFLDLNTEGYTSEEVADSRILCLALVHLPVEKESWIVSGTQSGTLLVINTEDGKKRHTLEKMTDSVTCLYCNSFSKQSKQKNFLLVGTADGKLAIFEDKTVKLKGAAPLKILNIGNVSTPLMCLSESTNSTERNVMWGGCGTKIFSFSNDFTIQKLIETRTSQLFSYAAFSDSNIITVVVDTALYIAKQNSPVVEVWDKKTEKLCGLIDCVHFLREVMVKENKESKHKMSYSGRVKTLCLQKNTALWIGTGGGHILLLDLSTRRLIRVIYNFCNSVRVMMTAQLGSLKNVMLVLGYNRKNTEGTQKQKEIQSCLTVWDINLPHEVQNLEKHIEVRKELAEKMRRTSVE
row,Variant,effect of a mutation on the interaction
1,F348A;L349A;Q350A;L396A;D397A;Y398A,with no effect
